Experimental data: PMC3064667

Target: T1, human IL-10 receptor (human) (UniProt Q13651)
T1 sequence 1: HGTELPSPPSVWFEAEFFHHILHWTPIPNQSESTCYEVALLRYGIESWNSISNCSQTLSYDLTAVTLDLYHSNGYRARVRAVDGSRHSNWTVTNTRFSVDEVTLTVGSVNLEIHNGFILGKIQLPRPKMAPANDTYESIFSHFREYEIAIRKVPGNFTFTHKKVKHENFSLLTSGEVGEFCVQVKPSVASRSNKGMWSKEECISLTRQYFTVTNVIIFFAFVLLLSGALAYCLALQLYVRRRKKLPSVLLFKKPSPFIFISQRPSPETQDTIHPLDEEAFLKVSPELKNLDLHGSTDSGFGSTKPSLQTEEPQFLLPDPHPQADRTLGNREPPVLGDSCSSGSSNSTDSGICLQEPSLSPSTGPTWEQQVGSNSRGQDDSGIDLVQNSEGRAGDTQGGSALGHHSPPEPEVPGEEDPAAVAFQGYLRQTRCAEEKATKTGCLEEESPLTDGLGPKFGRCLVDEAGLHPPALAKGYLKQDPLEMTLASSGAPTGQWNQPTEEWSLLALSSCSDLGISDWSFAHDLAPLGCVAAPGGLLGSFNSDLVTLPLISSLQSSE
T1 sequence 2: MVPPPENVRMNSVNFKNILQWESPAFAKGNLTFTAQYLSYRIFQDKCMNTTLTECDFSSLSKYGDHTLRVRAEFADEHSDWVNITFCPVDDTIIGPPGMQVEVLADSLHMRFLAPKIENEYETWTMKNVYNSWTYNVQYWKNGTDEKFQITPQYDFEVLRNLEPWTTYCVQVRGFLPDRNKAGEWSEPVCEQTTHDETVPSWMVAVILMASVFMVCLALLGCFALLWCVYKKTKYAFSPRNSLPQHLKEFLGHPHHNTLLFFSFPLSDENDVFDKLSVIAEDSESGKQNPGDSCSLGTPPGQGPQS

recombinant bovine IL-10, sequence (P43480 19-178): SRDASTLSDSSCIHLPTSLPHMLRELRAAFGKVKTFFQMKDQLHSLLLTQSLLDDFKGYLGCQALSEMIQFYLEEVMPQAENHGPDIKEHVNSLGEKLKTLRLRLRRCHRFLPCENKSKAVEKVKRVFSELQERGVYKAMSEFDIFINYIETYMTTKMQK

CD83 expression by LPS stimulated DCs, average percentage compared to cells only stimulated with LPS; bovine IL-10 0.25-20 ng/ml (130.5 at 0.25 ng/ml falling to 38.2 at 20 ng/ml) (% of cells only stimulated with LPS): 130
CD86 expression by LPS stimulated DCs, average percentage compared to cells only stimulated with LPS; bovine IL-10 0.25-20 ng/ml (106.3 at 0.25 ng/ml falling to 51.0 at 20 ng/ml) (% of cells only stimulated with LPS): 106
IL-1β production by LPS stimulated monocytes with 10 ng/ml bovine IL-10, average percentage compared to cells only stimulated with LPS (% of cells only stimulated with LPS): 30.3
IL-12 production by LPS stimulated DCs, average percentage compared to cells only stimulated with LPS; bovine IL-10 0.25-20 ng/ml (102.9 at 0.25 ng/ml falling to 1.5 at 20 ng/ml) (% of cells only stimulated with LPS): 103
TNF-α production by LPS stimulated DCs, average percentage compared to cells only stimulated with LPS; bovine IL-10 0.25-20 ng/ml (143.9 at 0.25 ng/ml falling to 0.9 at 20 ng/ml) (% of cells only stimulated with LPS): 144
TNF-α production by LPS stimulated monocytes with 10 ng/ml bovine IL-10, average percentage compared to cells only stimulated with LPS (% of cells only stimulated with LPS): 14.2
Substance: recombinant bovine IL-10 (from UniProt P43480 19-178) (ligand)
